# B1: Lysozyme binder VH14.1 / VL14.1 (scFv, V domains shown)
# VH: QVQLQESGPGLVKPSETLSLVCTVSGGSLSFSYWGWIRQPPGKGLEWIGYISHRGTDYNSSLQSRVTISADTSKNQFSLKLSSVTAADTAVYYCARSFSNSFFFGYWGQGT
# VL: SSELTQDPAVSVAFGQTVRITCQGDSLRSSYASWYQQKPGQAPLLVIYGENSRPSGIPDRFSGSSSGNTASLTITGAQAEDEADYYCNSRDSRGTHLEVFGG
# notes: Human scFv in pHEN1 on phage; Paired by common number
# How the values were obtained:
# Rhesus-D antigen (human) = Rhesus-D antigen (human) (UniProt Q02161); experiment: phage bound to Rh-D positive red blood cells, eluted with citric acid, titred on ampicillin plates; titre prior to selection 1.0 × 10^8
# Rhesus-D antigen (human), sequence (Q02161 2-417): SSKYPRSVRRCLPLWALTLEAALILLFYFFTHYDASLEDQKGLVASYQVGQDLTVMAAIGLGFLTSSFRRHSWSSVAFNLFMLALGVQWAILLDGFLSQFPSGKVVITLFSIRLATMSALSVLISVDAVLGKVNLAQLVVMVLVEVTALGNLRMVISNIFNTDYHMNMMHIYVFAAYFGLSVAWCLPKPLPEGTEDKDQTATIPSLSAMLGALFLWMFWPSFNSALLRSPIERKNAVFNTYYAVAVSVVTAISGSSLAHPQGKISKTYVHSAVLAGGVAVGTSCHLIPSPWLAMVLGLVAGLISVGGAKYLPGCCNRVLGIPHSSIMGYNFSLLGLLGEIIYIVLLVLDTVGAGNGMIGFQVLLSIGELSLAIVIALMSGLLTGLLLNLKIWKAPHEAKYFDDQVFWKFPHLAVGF
# [1] = target: bovine thyroglobulin (Sigma) (bovine) (UniProt P01267); experiment: phage ELISA, 200 µg/ml thyroglobulin coating
# bovine thyroglobulin (Sigma) (bovine), sequence (P01267 20-2769 limits assumed): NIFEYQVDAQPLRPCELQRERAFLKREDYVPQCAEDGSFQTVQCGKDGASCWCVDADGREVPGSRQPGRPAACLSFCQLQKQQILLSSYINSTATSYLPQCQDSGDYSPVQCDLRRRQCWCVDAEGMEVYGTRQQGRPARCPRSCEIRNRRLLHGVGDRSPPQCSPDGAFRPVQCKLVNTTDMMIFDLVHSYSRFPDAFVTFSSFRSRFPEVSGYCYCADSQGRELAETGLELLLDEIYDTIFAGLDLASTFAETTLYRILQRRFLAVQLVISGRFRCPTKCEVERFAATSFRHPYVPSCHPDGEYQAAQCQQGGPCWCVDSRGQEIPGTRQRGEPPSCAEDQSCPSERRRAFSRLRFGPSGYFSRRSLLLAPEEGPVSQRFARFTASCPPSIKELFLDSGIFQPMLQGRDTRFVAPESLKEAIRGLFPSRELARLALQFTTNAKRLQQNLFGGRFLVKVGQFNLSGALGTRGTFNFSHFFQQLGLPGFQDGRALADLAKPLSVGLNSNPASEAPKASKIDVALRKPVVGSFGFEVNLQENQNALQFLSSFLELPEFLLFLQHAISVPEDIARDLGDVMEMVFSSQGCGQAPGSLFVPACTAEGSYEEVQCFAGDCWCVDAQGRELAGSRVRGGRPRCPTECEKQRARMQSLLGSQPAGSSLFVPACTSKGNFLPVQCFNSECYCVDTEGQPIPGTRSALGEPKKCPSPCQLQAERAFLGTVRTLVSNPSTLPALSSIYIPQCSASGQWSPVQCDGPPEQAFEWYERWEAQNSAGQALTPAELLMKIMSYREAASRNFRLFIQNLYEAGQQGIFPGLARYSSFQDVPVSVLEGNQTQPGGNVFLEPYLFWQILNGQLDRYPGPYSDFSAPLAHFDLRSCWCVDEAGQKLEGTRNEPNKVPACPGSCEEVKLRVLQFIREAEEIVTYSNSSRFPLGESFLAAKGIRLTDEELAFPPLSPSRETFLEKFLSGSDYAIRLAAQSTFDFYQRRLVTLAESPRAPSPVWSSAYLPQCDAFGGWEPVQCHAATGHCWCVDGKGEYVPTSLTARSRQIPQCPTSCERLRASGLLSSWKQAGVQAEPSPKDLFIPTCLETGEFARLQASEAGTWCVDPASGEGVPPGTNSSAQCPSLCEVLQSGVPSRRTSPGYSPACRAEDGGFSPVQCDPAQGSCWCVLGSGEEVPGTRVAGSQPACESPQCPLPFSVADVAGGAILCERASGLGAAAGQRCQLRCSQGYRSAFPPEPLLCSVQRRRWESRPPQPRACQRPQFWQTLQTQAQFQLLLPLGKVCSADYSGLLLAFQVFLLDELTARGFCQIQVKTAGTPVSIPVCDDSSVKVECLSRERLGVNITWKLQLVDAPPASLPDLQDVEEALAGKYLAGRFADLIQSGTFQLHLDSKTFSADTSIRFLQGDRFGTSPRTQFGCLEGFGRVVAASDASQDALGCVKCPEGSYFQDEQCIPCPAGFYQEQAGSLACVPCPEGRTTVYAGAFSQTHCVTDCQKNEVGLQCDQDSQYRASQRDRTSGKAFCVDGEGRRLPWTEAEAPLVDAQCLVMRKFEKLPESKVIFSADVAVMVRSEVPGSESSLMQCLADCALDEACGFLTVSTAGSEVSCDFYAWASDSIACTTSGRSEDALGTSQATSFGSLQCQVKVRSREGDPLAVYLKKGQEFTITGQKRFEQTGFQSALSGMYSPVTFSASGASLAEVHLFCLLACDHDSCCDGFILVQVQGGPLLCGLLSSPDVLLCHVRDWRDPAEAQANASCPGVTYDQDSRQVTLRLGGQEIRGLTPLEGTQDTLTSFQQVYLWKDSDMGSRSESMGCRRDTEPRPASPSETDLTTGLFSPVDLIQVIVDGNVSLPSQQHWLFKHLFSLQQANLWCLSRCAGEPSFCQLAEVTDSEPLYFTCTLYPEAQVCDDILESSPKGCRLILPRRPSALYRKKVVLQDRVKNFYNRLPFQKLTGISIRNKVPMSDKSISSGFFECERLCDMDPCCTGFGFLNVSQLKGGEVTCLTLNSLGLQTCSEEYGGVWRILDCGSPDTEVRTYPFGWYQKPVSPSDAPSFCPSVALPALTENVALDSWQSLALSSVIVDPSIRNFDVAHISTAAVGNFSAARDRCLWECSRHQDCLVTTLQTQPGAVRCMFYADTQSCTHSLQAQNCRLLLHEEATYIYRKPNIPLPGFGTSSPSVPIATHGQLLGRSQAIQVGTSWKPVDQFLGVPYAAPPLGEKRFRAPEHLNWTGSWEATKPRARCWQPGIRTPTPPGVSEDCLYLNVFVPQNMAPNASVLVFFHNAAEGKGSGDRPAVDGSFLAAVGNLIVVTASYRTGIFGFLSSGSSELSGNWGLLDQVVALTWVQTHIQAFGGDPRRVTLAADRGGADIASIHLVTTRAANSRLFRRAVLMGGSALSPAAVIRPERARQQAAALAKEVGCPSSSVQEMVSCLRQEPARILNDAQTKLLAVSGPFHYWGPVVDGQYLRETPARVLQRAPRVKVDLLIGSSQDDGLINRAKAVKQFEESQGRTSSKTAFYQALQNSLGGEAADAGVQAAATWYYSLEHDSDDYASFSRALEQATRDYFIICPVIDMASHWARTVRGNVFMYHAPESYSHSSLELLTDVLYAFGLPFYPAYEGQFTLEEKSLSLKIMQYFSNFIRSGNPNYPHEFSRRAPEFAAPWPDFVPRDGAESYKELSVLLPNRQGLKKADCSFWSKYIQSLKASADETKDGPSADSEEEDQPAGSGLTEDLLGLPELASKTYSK
# [2] = target: T1, turkey egg-white lysozyme (turkey, UniProt P00703 19-147); experiment: heading of the table of deduced sequences
# T1 construct: also called turkey egg lysozyme; turkey lysozyme
# T1 sequence (P00703 19-147 limits assumed): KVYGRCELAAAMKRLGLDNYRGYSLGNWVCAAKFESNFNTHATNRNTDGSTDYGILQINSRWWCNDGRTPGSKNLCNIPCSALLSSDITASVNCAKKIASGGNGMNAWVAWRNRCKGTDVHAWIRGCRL
molecule,measurement,setting,value
Fog-B Fab fragment displayed on the surface of phage (pHEN1),titre of phage eluted after selection on Rh-D positive cells,Rhesus-D antigen (human),6e+06
phage control (vector pCAT3) (from UniProt P03661 19-424),ELISA OD,[1],0.07 O.D.
B1,binding result,[2],binds

# Reference: patent publication US6806079
